{"source": "paper PMC270082", "key": {"[1]": {"target": "PcrG (residues 1-98) (P. aeruginosa strain CHA)", "assay": "native MS"}, "[2]": {"target": "PcrG (residues 1-98) (P. aeruginosa strain CHA)", "assay": "SPR"}, "[3]": {"target": "PcrG (1-74) (P. aeruginosa strain CHA)", "assay": "SPR"}}, "data": [{"substance": "PcrV (from UniProt G3XD49 1-294) (natural protein)", "values": [{"measurement": "stoichiometry N", "setting": "[1]", "result": 1}, {"measurement": "Kd", "setting": "[2]", "result": 15.6, "unit": "nM"}, {"measurement": "koff", "setting": "[2]", "result": 0.00694, "unit": "s⁻¹"}, {"measurement": "kon", "setting": "[2]", "result": 445000, "unit": "M⁻¹ s⁻¹"}, {"measurement": "Kd", "setting": "[3]", "result": 15.6, "unit": "nM"}, {"measurement": "koff", "setting": "[3]", "result": 0.00491, "unit": "s⁻¹"}, {"measurement": "kon", "setting": "[3]", "result": 316000, "unit": "M⁻¹ s⁻¹"}]}]}
